From US20200054723A1 (ALLAKOS, published 2020) come the findings set out here.

As usually defined, the EC50 is the concentration needed to bring the measured effect to its halfway point.

B1: HFKA (antibody, human IgG1, V domains shown)
VH: EVQLVESGGGLVQPGGSLRLSCAASGFSLTIYGAHWVRQAPGKGLEWVSVIWAGGSTNYNSALMSRLTISKDNSKNTVYLQMNSLRAEDTAVYYCARDGSSPYYYSMEYWGQGTTVTVSS
VL: EIVLTQSPATLSLSPGERATLSCSATSSVSYMHWFQQKPGQAPRLLIYSTSNLASGIPARFSGSGSGTDFTLTISSLEPEDFAVYYCQQRSSYPFTFGPGTKLDIK
notes: human IgG1/kappa
B2: HGKB (antibody, human IgG1, V domains shown)
VH: EVQLVESGGGLVQPGGSLRLSCAASGFSLTIYGAHWVRQAPGKGLEWVSVIWAGGSTNYNSALMSRFSISKDNSKNTVYLQMNSLRAEDTAVYYCARDGSSPYYYSMEYWGQGTTVTVSS
VL: EIILTQSPATLSLSPGERATLSCSATSSVSYMHWFQQKPGQAPRLWIYSTSNLASGVPARFSGSGSGTDYTLTISSLEPEDFAVYYCQQRSSYPFTFGPGTKLDIK
notes: human IgG1/kappa
B3: HFKF (antibody, human IgG1, V domains shown)
VH: EVQLVESGGGLVQPGGSLRLSCAASGFSLTIYGAHWVRQAPGKGLEWVSVIWAGGSTNYNSALMSRLTISKDNSKNTVYLQMNSLRAEDTAVYYCARDGSSPYYYSMEYWGQGTTVTVSS
VL: EIVLTQSPATLSLSPGERATLSCSATSSVSYMHWFQQKPGQAPRLLIYSTSNLASGIPARFSGSGSGTDYTLTISSLEPEDFAVYYCQQRSSYPFTFGPGTKLDIK
notes: human IgG1/kappa
B4: HFKD (antibody, human IgG1, V domains shown)
VH: EVQLVESGGGLVQPGGSLRLSCAASGFSLTIYGAHWVRQAPGKGLEWVSVIWAGGSTNYNSALMSRLTISKDNSKNTVYLQMNSLRAEDTAVYYCARDGSSPYYYSMEYWGQGTTVTVSS
VL: EIVLTQSPATLSLSPGERATLSCSATSSVSYMHWFQQKPGQAPRLWIYSTSNLASGIPARFSGSGSGTDFTLTISSLEPEDFAVYYCQQRSSYPFTFGPGTKLDIK
notes: human IgG1/kappa
B5: HFKFmut (antibody, human IgG1, V domains shown)
VH: EVQLVESGGGLVQPGGSLRLSCAASGFSLTIYGAHWVRQAPGKGLEWVSVIWAGGSTNYNSALMSRLTISKDNSKNTVYLQMNSLRAEDTAVYYCARDGSSPYYYSMEYWGQGTTVTVSS
VL: EIVLTQSPATLSLSPGERATLSCSATSSVSYMHWFQQKPGQAPRLLIYSTSNLASGIPARFSGSGSGTDYTLTISSLEPEDFAVYYCQQRSSYPYTFGPGTKLDIK
notes: human IgG1/kappa
B6: HGKF (antibody, human IgG1, V domains shown)
VH: EVQLVESGGGLVQPGGSLRLSCAASGFSLTIYGAHWVRQAPGKGLEWVSVIWAGGSTNYNSALMSRFSISKDNSKNTVYLQMNSLRAEDTAVYYCARDGSSPYYYSMEYWGQGTTVTVSS
VL: EIVLTQSPATLSLSPGERATLSCSATSSVSYMHWFQQKPGQAPRLLIYSTSNLASGIPARFSGSGSGTDYTLTISSLEPEDFAVYYCQQRSSYPFTFGPGTKLDIK
notes: human IgG1/kappa
B7: HGKA (antibody, human IgG1, V domains shown)
VH: EVQLVESGGGLVQPGGSLRLSCAASGFSLTIYGAHWVRQAPGKGLEWVSVIWAGGSTNYNSALMSRFSISKDNSKNTVYLQMNSLRAEDTAVYYCARDGSSPYYYSMEYWGQGTTVTVSS
VL: EIVLTQSPATLSLSPGERATLSCSATSSVSYMHWFQQKPGQAPRLLIYSTSNLASGIPARFSGSGSGTDFTLTISSLEPEDFAVYYCQQRSSYPFTFGPGTKLDIK
notes: human IgG1/kappa
B8: HGKE (antibody, human IgG1, V domains shown)
VH: EVQLVESGGGLVQPGGSLRLSCAASGFSLTIYGAHWVRQAPGKGLEWVSVIWAGGSTNYNSALMSRFSISKDNSKNTVYLQMNSLRAEDTAVYYCARDGSSPYYYSMEYWGQGTTVTVSS
VL: EIVLTQSPATLSLSPGERATLSCSATSSVSYMHWFQQKPGQAPRLLIYSTSNLASGVPARFSGSGSGTDFTLTISSLEPEDFAVYYCQQRSSYPFTFGPGTKLDIK
notes: human IgG1/kappa
B9: HFKG (antibody, human IgG1, V domains shown)
VH: EVQLVESGGGLVQPGGSLRLSCAASGFSLTIYGAHWVRQAPGKGLEWVSVIWAGGSTNYNSALMSRLTISKDNSKNTVYLQMNSLRAEDTAVYYCARDGSSPYYYSMEYWGQGTTVTVSS
VL: EIVLTQSPATLSLSPGERATLSCSATSSVSYMHWYQQKPGQAPRLLIYSTSNLASGIPARFSGSGSGTDFTLTISSLEPEDFAVYYCQQRSSYPFTFGPGTKLDIK
notes: human IgG1/kappa
B10: HGKD (antibody, human IgG1, V domains shown)
VH: EVQLVESGGGLVQPGGSLRLSCAASGFSLTIYGAHWVRQAPGKGLEWVSVIWAGGSTNYNSALMSRFSISKDNSKNTVYLQMNSLRAEDTAVYYCARDGSSPYYYSMEYWGQGTTVTVSS
VL: EIVLTQSPATLSLSPGERATLSCSATSSVSYMHWFQQKPGQAPRLWIYSTSNLASGIPARFSGSGSGTDFTLTISSLEPEDFAVYYCQQRSSYPFTFGPGTKLDIK
notes: human IgG1/kappa
B11: HGKFmut (antibody, human IgG1, V domains shown)
VH: EVQLVESGGGLVQPGGSLRLSCAASGFSLTIYGAHWVRQAPGKGLEWVSVIWAGGSTNYNSALMSRFSISKDNSKNTVYLQMNSLRAEDTAVYYCARDGSSPYYYSMEYWGQGTTVTVSS
VL: EIVLTQSPATLSLSPGERATLSCSATSSVSYMHWFQQKPGQAPRLLIYSTSNLASGIPARFSGSGSGTDYTLTISSLEPEDFAVYYCQQRSSYPYTFGPGTKLDIK
notes: human IgG1/kappa
B12: HFKC (antibody, human IgG1, V domains shown)
VH: EVQLVESGGGLVQPGGSLRLSCAASGFSLTIYGAHWVRQAPGKGLEWVSVIWAGGSTNYNSALMSRLTISKDNSKNTVYLQMNSLRAEDTAVYYCARDGSSPYYYSMEYWGQGTTVTVSS
VL: EIILTQSPATLSLSPGERATLSCSATSSVSYMHWFQQKPGQAPRLLIYSTSNLASGIPARFSGSGSGTDFTLTISSLEPEDFAVYYCQQRSSYPFTFGPGTKLDIK
notes: human IgG1/kappa
B13: HFKB (antibody, human IgG1, V domains shown)
VH: EVQLVESGGGLVQPGGSLRLSCAASGFSLTIYGAHWVRQAPGKGLEWVSVIWAGGSTNYNSALMSRLTISKDNSKNTVYLQMNSLRAEDTAVYYCARDGSSPYYYSMEYWGQGTTVTVSS
VL: EIILTQSPATLSLSPGERATLSCSATSSVSYMHWFQQKPGQAPRLWIYSTSNLASGVPARFSGSGSGTDYTLTISSLEPEDFAVYYCQQRSSYPFTFGPGTKLDIK
notes: human IgG1/kappa
B14: HGKC (antibody, human IgG1, V domains shown)
VH: EVQLVESGGGLVQPGGSLRLSCAASGFSLTIYGAHWVRQAPGKGLEWVSVIWAGGSTNYNSALMSRFSISKDNSKNTVYLQMNSLRAEDTAVYYCARDGSSPYYYSMEYWGQGTTVTVSS
VL: EIILTQSPATLSLSPGERATLSCSATSSVSYMHWFQQKPGQAPRLLIYSTSNLASGIPARFSGSGSGTDFTLTISSLEPEDFAVYYCQQRSSYPFTFGPGTKLDIK
notes: human IgG1/kappa
B15: HFKE (antibody, human IgG1, V domains shown)
VH: EVQLVESGGGLVQPGGSLRLSCAASGFSLTIYGAHWVRQAPGKGLEWVSVIWAGGSTNYNSALMSRLTISKDNSKNTVYLQMNSLRAEDTAVYYCARDGSSPYYYSMEYWGQGTTVTVSS
VL: EIVLTQSPATLSLSPGERATLSCSATSSVSYMHWFQQKPGQAPRLLIYSTSNLASGVPARFSGSGSGTDFTLTISSLEPEDFAVYYCQQRSSYPFTFGPGTKLDIK
notes: human IgG1/kappa

T1 sequence (Q9NYZ4 17-363): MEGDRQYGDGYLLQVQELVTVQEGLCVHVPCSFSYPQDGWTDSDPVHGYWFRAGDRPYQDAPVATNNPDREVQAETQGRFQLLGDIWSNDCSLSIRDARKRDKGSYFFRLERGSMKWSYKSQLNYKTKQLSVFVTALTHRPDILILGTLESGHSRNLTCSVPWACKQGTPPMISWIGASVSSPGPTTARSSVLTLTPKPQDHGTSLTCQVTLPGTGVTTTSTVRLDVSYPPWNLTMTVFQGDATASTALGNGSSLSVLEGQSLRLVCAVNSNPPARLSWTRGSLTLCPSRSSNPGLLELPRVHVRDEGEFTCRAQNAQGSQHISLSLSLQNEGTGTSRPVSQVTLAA

The assay addresses T1, recombinant human Siglec-8 extracellular domain (ECD) (human, UniProt Q9NYZ4 17-363).
T1 construct: extracellular domain; also called Siglec-8 ECD; full Siglec-8 ECD
Description: ELISA, coated Siglec-8 ECD. How it is done: Binding of recombinant human Siglec-8 extracellular domain (ECD) by chimeric 2E2 and chimeric 2C4 IgG1K antibodies was measured by ELISA. […] Three-fold serial dilutions of a chimeric antibody (ch2E2 or ch2C4) or mouse antibody (m2E2 or m2C4) in 0.2% BSA/TBS (starting concentration was 5000 ng/mL) was added to each coated well. The plate was incubated for 2 hours at room temperature and the wells were subsequently washed before addition of goat-anti-human Fc peroxidase conjugate (1:10000 dilution) or anti-mouse Fc peroxidase conjugate (1:30000 dilution) diluted in 0.2% BSA/TBS solution. The plate was incubated for 45 minutes at room temperature, followed by washing and addition of 30 μL K-blue HRP substrate (SkyBio Ltd) to each well. After incubation at room temperature for 15 minutes, the reaction was stopped by adding 10 μL of Red Stop solution (SkyBio Ltd) to each well. The optical density or the experimental samples was read at 650 nm using the ELISA reader PHERAStar FS (BMG Labtech).
The fully humanized antibody heavy and light chains were combined and compared with the chimeric antibody to determine if replacing the 4 Å and canonical framework residues and interface residues was sufficient to successfully humanize 2E2. Expi293 cells were co-transfected with combinations of different humanized light chain vectors in association with different humanized heavy chain vectors. Siglec-8 antigen was used to measure antibody binding by ELISA as described in Example 1.
On the technique in general: An ELISA detects its analyte on a solid surface through an enzyme-linked reagent.
On to B1, for which the EC50 turned out to be 0.106 nM.

With B2, the EC50 came out at 0.134 nM.

Regarding B3, the EC50 turned out to be 0.118 nM.

Take B4: the EC50 worked out at 0.058 nM.

Regarding B5, the EC50 was determined as 0.057 nM.

For the molecule B6, the EC50 stood at 0.088 nM.

Regarding B7, the EC50 worked out at 0.061 nM.

Take B8: the EC50 worked out at 0.116 nM.

With B9, the EC50 was 0.355 nM.

Consider B10, for which the EC50 is 0.047 nM.

Turning to B11, the EC50 was 0.062 nM.

For B12, the EC50 amounted to 0.063 nM.

For B13, the EC50 turned out to be 0.099 nM.

As to B14, the EC50 turned out to be 0.065 nM.

Take B15: the EC50 amounted to 0.104 nM.
